Key:
Experiment in all cases: SPR
Conditions in all cases: EMSA: 10 mM Tris-HCl pH 7.5, 50 mM KCl, 1 mM DTT, 0.4% glycerol, 20 uL, 28 C, 25-30 min; 5% native gel, 0.5x TBE, 4 C; SPR conditions not given
[1] = system: HtsH1C-Flag-His (Lysobacter enzymogenes OH11)
[2] = system: HtsH2C-HA-His (Lysobacter enzymogenes OH11)
[3] = system: HtsH3C-Myc-His (Lysobacter enzymogenes OH11)

Q: Which Kd [1] does the source give for plafB (SPR) here?
A: Its Kd is 536 nM.

Q: What about the Kd [2] of the same substance?
A: The Kd was 1380 nM.

Q: And the Kd [3]?
A: The Kd was 249 nM.

— publication PMC8463545
